Measurements from publication PMC7883291, “Selective cross‐linking of coinciding protein assemblies by in‐gel cross‐linking mass spectrometry” (The EMBO Journal, 2021).
“And” between values parts separate entries of the source, which are not always exact repeats. Equal values may be shown once.

Target: T1, Escherichia coli GroEL chaperone (Escherichia coli, UniProt P0A6F5 2-548)
T1 construct: GroEL chaperonin, Escherichia coli; monomer band at 57 kDa, native 14-mer of 800 kDa; also called 14-mer GroEL; source: expressed and purified as previously described; copies: 14
T1 sequence (P0A6F5 2-548): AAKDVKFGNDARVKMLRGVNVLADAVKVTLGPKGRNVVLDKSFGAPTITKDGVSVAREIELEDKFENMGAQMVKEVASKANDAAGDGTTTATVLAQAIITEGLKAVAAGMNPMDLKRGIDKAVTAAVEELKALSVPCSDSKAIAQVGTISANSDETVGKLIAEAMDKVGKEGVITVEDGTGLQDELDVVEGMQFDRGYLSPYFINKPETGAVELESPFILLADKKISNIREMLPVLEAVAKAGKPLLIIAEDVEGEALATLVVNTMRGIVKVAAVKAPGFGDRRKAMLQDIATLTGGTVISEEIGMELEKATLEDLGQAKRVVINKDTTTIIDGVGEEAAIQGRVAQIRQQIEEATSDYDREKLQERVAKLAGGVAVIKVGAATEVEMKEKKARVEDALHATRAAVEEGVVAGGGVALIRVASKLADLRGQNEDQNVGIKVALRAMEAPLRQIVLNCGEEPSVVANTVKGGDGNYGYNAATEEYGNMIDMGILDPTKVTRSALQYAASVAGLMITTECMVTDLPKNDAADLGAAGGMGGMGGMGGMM
Test: native gel or EMSA; BN-PAGE after incubation of unfolded gp23 (11.4 µM) with GroEL (0.8 µM) in 50 mM Tris pH 7.5, 50 mM KCl, MgCl2, 1 mM ADP, 10 min at RT; subunits in the bands quantified by iBAQ
Conditions: both partners purified

B1: bacteriophage T4 capsid protein (gp23) (natural protein, UniProt P04535 1-521, looked up)
chain: MTIKTKAELLNKWKPLLEGEGLPEIANSKQAIIAKIFENQEKDFQTAPEYKDEKIAQAFGSFLTEAEIGGDHGYNATNIAAGQTSGAVTQIGPAVMGMVRRAIPNLIAFDICGVQPMNSPTGQVFALRAVYGKDPVAAGAKEAFHPMYGPDAMFSGQGAAKKFPALAASTQTTVGDIYTHFFQETGTVYLQASVQVTIDAGATDAAKLDAEIKKQMEAGALVEIAEGMATSIAELQEGFNGSTDNPWNEMGFRIDKQVIEAKSRQLKAAYSIELAQDLRAVHGMDADAELSGILATEIMLEINREVVDWINYSAQVGKSGMTLTPGSKAGVFDFQDPIDIRGARWAGESFKALLFQIDKEAVEIARQTGRGEGNFIIASRNVVNVLASVDTGISYAAQGLATGFSTDTTKSVFAGVLGGKYRVYIDQYAKQDYFTVGYKGPNEMDAGIYYAPYVALTPLRGSDPKNFQPVMGFKTRYGIGINPFAESAAQAPASRIQSGMPSILNSLGKNAYFRRVYVKGI
notes: major capsid protein gp23 of bacteriophage T4, printed size 56 kDa; Used as an unfolded substrate of GroEL; also called major capsid protein gp23; unfolded gp23; source: expressed and purified as previously described; unfolded in 8 M urea for one hour at RT
stoichiometry N: 1 and 2
